T1: B-RCAL (BÜHLMANN recombinant calprotectin; His6-linker-S100A9-linker-S100A8) (human)
T1 chain: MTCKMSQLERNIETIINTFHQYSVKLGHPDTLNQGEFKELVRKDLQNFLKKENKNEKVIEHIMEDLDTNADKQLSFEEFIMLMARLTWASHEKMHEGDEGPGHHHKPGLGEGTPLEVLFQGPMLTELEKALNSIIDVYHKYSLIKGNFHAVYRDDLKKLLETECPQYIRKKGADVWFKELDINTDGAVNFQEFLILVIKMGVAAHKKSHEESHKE

T2: B-RCAL (BÜHLMANN recombinant calprotectin; His6-linker-S100A9-linker-S100A8)
T2 chain: T1 chain


Legend:
[1] = molecular target: T1, B-RCAL (BÜHLMANN recombinant …); experiment: FP; settings: modification not given
[2] = molecular target: T2, B-RCAL (BÜHLMANN recombinant …); experiment: fluorescence polarisation; settings: chain shown with the change, in the presence of calcium ions, three independent measurements

Binder	Kd [1] [nM]	also measured
RSPESVAFPMFQSHAYSG [W15A]	24	
RSPESVAFPMFQSHWYSA [G18A]	31	
RSPESVAFPMFQCHWYCG [peptide 3 isomer 1 (dumbbell shaped, double-bridged) C2S; C5S]		Kd ([2]; Cys3-Cys4 chemically bridged): 17.9 nM
RCPECVAFPMFQSHWYSG [peptide 3 isomer 1 (dumbbell shaped, double-bridged) C13S; C17S]		Kd ([2]; Cys1-Cys2 chemically bridged): 16.9 nM
RSPASVAFPMFQSHWYSG [E4A]	26	
RSPESVAFAMFQSHWYSG [P9A]	30	

— PMC10192418, “High-affinity peptides developed against calprotectin and their application as synthetic ligands in diagnostic assays” (Nature Communications, 2023)
